Source: publication PMC3121799, “Mechanism of Heparin Acceleration of Tissue Inhibitor of Metalloproteases-1 (TIMP-1) Degradation by the Human Neutrophil Elastase” (PLoS ONE, 2011)
Square brackets hold non-standard residues; d marks the D form. Ends that are not written are not given here. * marks the point of attachment. EDDnp = O=[N+]([O-])c1ccc(NCCN*)c([N+](=O)[O-])c1; 2Abz = Nc1ccccc1C(=O)O

B1: FRET-peptide Abz-AMESVMGYFHRSQ-EDDnp (peptide)
peptide: [2Abz]AMESVMGYFHRSQ-EDDnp
notes: the peptide has Met where TIMP-1 has Cys70 (cleaved bond Val-Met); also called FRET-peptide substrate; FRET substrate; source: synthetic peptide (solid phase, Fmoc; HPLC purified)

Tests used:
His57 = His57 (UniProt position 70, VMSAAHCVANV); experiment: kinetics; conditions: 37 °C, Constant ionic strength buffer system containing 140 mM NaCl, 25 mM glycine, 25 mM acetic acid, 25 mM Mes, 75 mM Tris, 0.05% (v/v) Triton X-100, pH adjusted with HCl or NaOH
Nterm16 = experiment: kinetics; conditions: 37 °C, Constant ionic strength buffer system containing 140 mM NaCl, 25 mM glycine, 25 mM acetic acid, 25 mM Mes, 75 mM Tris, 0.05% (v/v) Triton X-100, pH adjusted with HCl or NaOH
[1] = biological target: T1, Human neutrophil elastase (human, UniProt P08246 30-267); experiment: stopped-flow fluorescence kinetics of substrate hydrolysis (pre-steady-state, fit to a three-step mechanism with DynaFit IV); both in solution; 3.8 µM FRET-peptide, 12.6 nM HNE (12.7 nM in the methods), 25°C, 10 mM Tris-HCl pH 7.4, 100 mM NaCl, with 50 µM heparin; conditions: both partners purified
T1 sequence (P08246 30-267): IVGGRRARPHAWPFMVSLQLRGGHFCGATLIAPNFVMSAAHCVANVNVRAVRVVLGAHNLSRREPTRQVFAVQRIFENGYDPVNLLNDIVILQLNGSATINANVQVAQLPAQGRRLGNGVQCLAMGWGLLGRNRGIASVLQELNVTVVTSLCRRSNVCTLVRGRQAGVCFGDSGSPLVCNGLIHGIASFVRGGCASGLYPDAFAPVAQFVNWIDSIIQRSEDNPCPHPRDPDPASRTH

[2] = biological target: T1, Human neutrophil elastase; experiment: stopped-flow fluorescence kinetics of substrate hydrolysis (pre-steady-state, fit to a three-step mechanism with DynaFit IV); both in solution; 3.8 µM FRET-peptide, 12.6 nM HNE, 25°C, 10 mM Tris-HCl pH 7.4, 100 mM NaCl, no heparin; conditions: both partners purified
[3] = Free enzyme, no heparin (control)
[4] = Heparin-bound enzyme (50 µM 14 kDa heparin)

Molecule	pKa (His57; [3])	pKa (His57; [4])	pKa (Nterm16; [3])	pKa (Nterm16; [4])	koff [1] [s⁻¹]	kon [1] [M⁻¹ s⁻¹]	koff [2] [s⁻¹]	kon [2] [M⁻¹ s⁻¹]
Human neutrophil elastase (HNE; leukocyte elastase, EC 3.4.21.37) (Homo sapiens)	6.71±0.05	7.04±0.07	8.93±0.05	9.60±0.07				
B1					0.081	820000	0.25	350000
